From US20260048158A1 (AKTIS ONCOLOGY, published 2026) come the findings set out here.

B1: Compound C234 (designed binder)
chain: CAXEKIAALSEIIWLPCLTYAQIXAFIAALNDDPCQSSEILSEAKELCS
modifications: (Kme3) trimethyllysine at 3; (Kme2) dimethyllysine at 24; N-terminal Biotin-PEG4; C-terminal NH2; two disulfide bridges among Cys1, Cys17, Cys35, Cys48
notes: also called C298
B2: Compound C308 (designed binder)
chain: B1 chain with A29X, D32X, K45X
modifications: (Kme3) at 3; (Kme) at 24, 29, 32 and 45; N-terminal Biotin-PEG4; C-terminal NH2; two disulfide bridges among Cys1, Cys17, Cys35, Cys48
B3: Compound C300 (designed binder)
chain: B1 chain with X3R, S38A
modifications: (Kme2) at 24; N-terminal Biotin-PEG4; C-terminal NH2; two disulfide bridges among Cys1, Cys17, Cys35, Cys48
B4: Compound C304 (designed binder)
chain: B1 chain with K45X
modifications: (Kme3) at 3; (Kme) at 24 and 45; N-terminal Biotin-PEG4; C-terminal NH2; two disulfide bridges among Cys1, Cys17, Cys35, Cys48
B5: Compound C302 (designed binder)
chain: B1 chain with X3R, S38A, E39N, K45X
modifications: (Kme) monomethyllysine at 24 and 45; N-terminal Biotin-PEG4; C-terminal NH2; two disulfide bridges among Cys1, Cys17, Cys35, Cys48
B6: Compound C318 (designed binder)
chain: B1 chain with A29X, D32X, K45X
modifications: (Kme3) at 3; (Kme2) at 24; (Kme) at 29 and 45; (Cit) citrulline at 32; N-terminal Biotin-PEG4; C-terminal NH2; two disulfide bridges among Cys1, Cys17, Cys35, Cys48
B7: Compound C306 (designed binder)
chain: B1 chain with A28X, K45X
modifications: (Kme3) at 3; (Kme) at 24, 28 and 45; N-terminal Biotin-PEG4; C-terminal NH2; two disulfide bridges among Cys1, Cys17, Cys35, Cys48
B8: Compound C312 (designed binder)
chain: B1 chain with Q36N, K45X
modifications: (Kme3) at 3; (Kme) at 24 and 45; N-terminal Biotin-PEG4; C-terminal NH2; two disulfide bridges among Cys1, Cys17, Cys35, Cys48
B9: Compound C310 (designed binder)
chain: B1 chain with T19N, K45X
modifications: (Kme3) at 3; (Kme) at 24 and 45; N-terminal Biotin-PEG4; C-terminal NH2; two disulfide bridges among Cys1, Cys17, Cys35, Cys48
B10: Compound C316 (designed binder)
chain: B1 chain with A29R, S38A, K45X
modifications: (Rme) methylated arginine at 3; (Kme) at 24 and 45; N-terminal Biotin-PEG4; C-terminal NH2; two disulfide bridges among Cys1, Cys17, Cys35, Cys48
B11: Compound C608 (designed binder)
chain: B1 chain with E11X, Q36N, K45X
modifications: (Kme3) at 3; (E(CO-)) at 11 and (K(NH-)) at 45 joined by a lactam bridge; (Kme) at 24; N-terminal Biotin-PEG4; C-terminal NH2; two disulfide bridges
notes: Three constraints (two disulfide bridges, one lactam bridge)
B12: Compound C245 (designed binder)
chain: CAKEKIAALSEIIWLPCLTYAQIXAFIAALNDDPCQSSELLSEAKELNDSQCP
modifications: (homo-leucine) at 24; N-terminal Biotin-PEG4; C-terminal NH2; disulfide bridges between cysteine pairs (Cys1-Cys35 and Cys17-Cys52 named for SEQ ID NO: 213)
B13: Compound C255 (designed binder)
chain: B12 chain
modifications: (Kme3) at 24; N-terminal Biotin-PEG4; C-terminal NH2; disulfide bridges between cysteine pairs
B14: Compound C253 (designed binder)
chain: B12 chain
modifications: (Kme2) at 24; N-terminal Biotin-PEG4; C-terminal NH2; disulfide bridges between cysteine pairs

Where a chain is given by its changes, count along the chain named. Primed or numbered codes have the meaning given here. The star is where a group is joined. Biotin = O=C1N[C@H]2[C@H](CS[C@H]2CCCCC(=O)*)N1; PEG4′ = not defined here

The first experiment concerns the target T1, His-tagged B7-H3 protein (ThermoFisher, catalog #B7-H3_NP_001019907) (Homo sapiens (Human), UniProt Q5ZPR3 29-466).
T1 construct: Bought protein immobilised for SPR; also called ligand; target protein; not shown: His tag
T1 sequence: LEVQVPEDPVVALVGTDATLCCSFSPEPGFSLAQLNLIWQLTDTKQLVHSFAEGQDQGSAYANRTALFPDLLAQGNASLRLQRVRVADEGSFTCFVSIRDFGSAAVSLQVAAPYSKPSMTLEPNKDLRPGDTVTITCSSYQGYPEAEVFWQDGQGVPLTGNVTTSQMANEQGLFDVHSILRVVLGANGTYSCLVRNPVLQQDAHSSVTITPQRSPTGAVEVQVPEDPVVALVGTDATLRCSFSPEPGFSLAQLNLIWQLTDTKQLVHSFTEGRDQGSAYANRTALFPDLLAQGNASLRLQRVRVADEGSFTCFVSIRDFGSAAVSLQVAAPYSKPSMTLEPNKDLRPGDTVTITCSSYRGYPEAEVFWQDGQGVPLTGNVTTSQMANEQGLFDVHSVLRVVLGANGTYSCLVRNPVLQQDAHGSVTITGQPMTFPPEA
Put plainly: SPR (as in Example 2). On the procedure:
Surface plasmon resonance (SPR) analyses were performed using Biacore T200 (GE Healthcare). His-tagged B7-H3 protein (ThermoFisher, catalog #B7-H3_NP_001019907), (“ligand”) was immobilized to a Series S NTA chip (Cytiva #28994951). Running buffer was 0.05% Surfactant P20 in HEPES buffered saline (HBS-P), pH 7.4 (Cytiva). Immobilization was performed at 25° C. […] Pulsatile injections were made to target a specific immobilization level. […] Increase in signal (RU) is proportional to an increase in binding events between the analyte and ligand surface. Then injection was then stopped, and dissociation was measured. The resulting sensorgram is reference surface and blank injection subtracted prior to curve fitting. […] KD was calculated using a 1:1 binding model at 25° C.
(§1) Equilibrium binding affinity (KD) was determined using SPR (as in Example 2) or a live cell binding assay (DELFIA) on MCF7 cells that express B7-H3. Binding inhibition constant (Kᵢ) of miniprotein ligands was also determined using MCF7 cells expressing a B7-H3. Cells were dispensed into a 384-well plate and incubated at 37° C. in 5% CO₂ overnight.
Molecule B1 yielded a Kd of 1.36 nM. Consider B2, for which the Kd came out at 0.482 nM. In turn, B3 registered a Kd of 0.506 nM. B4 yielded a Kd of 1.43 nM. For the molecule B5, binding was characterised by a dissociation constant (Kd) of 0.558 nM. Molecule B6 registered a dissociation constant Kd of 1.24 nM.

Consider B7, for which binding was characterised by a dissociation constant (Kd) of 0.761 nM. Still for that read-out and setting: for B8 the value was 0.485 nM. Still for that read-out and setting: for B9 the value was 0.782 nM. The molecule B10 displayed a Kd of 0.621 nM.

In another experiment the target is T2, B7-H3 expressed on the surface of cells (MCF7 cells; B7-H3-expressing cancer cells) (Homo sapiens (Human), UniProt Q5ZPR3 29-534).
T2 construct: Endogenous B7-H3 on MCF7 cells (DELFIA) and on an unnamed cancer cell line (flow cytometry); also called CD276
T2 sequence: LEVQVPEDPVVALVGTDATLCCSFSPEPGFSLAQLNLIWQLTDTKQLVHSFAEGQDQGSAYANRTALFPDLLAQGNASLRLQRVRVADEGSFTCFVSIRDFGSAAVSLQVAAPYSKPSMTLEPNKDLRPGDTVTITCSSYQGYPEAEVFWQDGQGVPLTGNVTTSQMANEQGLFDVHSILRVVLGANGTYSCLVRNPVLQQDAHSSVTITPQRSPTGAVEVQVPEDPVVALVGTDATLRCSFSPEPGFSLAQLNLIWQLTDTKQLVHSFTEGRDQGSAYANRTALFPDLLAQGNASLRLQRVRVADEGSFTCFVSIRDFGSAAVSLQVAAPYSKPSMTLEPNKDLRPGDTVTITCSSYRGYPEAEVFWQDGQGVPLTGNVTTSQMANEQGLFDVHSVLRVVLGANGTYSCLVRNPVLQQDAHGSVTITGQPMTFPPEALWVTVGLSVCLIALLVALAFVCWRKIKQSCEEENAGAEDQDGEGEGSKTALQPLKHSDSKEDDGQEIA
The experiment can be described thus: DELFIA on-cell competition assay on MCF7 cells (FIG. 15); single experiment of FIG. 15. On the procedure: as §1
(§2) The plate was incubated for 1.5 h at room temperature to reach equilibrium. Cells were then washed to remove unbound ligand and treated according to manufacturer instructions for a DELFIA® (dissociation-enhanced lanthanide fluorescent immunoassay, Revvity Health Sciences). In brief, 2 M HCl was added to each well and incubated for 2 h at 37° C. Following this step, 2 M NaOH and fluorescent inducer solution were added to each well and incubated for 30 minutes at room temperature. Plates were read on an Envision plate reader and a curve-fitting model was applied to estimate KD and Kᵢ values.
With B1, the Ki was around 1.36 nM.

In the next experiment the target is T2, B7-H3 expressed on the surface of cells …. Put plainly: DELFIA competition on live MCF7 cells expressing B7-H3; fixed tracer: europium-chelate miniprotein. On the procedure: as §1, §2
B1: the Ki was 1.72 nM. In turn, B2 showed a Ki of 0.872 nM. Still for that read-out and setting: for B3 the value was 1.91 nM; for B4, 2.24 nM; for B11, 3.58 nM. B5: the Ki was found to be 1.34 nM. For B6, the affinity, expressed as Ki, was 1.24 nM. In turn, B7 had a Ki of 1.24 nM.

On to B8, for which the affinity corresponds to a Ki of 1.01 nM. Same read-out and setting: for B9 the value was 0.886 nM; for B10, 0.873 nM.

The target is the same in the next experiment. Put plainly: DELFIA competition assay on live MCF7 cells expressing B7-H3; the unlabeled competing ligand is varied against a fixed concentration of the europium-chelate miniprotein tracer. On the procedure:
as §1, §2
In the case of B1, the “IC50 (read off the curve)” value was around 3 nM.

Another experiment shares this target. Put plainly: DELFIA competition on cells expressing B7-H3 (as in Example 14); competitor: europium-chelate miniprotein tracer.
In turn, B12 gave a Ki of 2.8 nM. B13 displayed a Ki of 8.75 nM. The same measure, in the same setting: for B14 the value was 5.36 nM; for {Biotin-PEG4′}-CAREKIAALSEIIWLPCLTYAQIQAFIAALNDDPCQSSEILSEAKELCS-NH2 (designed binder, disulfide (positions not given here)) [Compound C290], 13.8 nM; for {Biotin-PEG4′}-CAREKIAALSEIIWLPCLTYAQIVAFIAALNDDPCQSSEILSEAKELCS-NH2 (designed binder, disulfide (positions not given here)) [Compound C291], 7.7 nM. For the molecule {Biotin-PEG4′}-CAREKIAALSEIIWLPCLTYAQIKAFIAALNDDPCQSSEILSEAKELCS-NH2 (designed binder, disulfide (positions not given here)) [Compound C284], the inhibition constant (Ki) turned out to be 2.02 nM. In the case of {Biotin-PEG4′}-CAREKIAALSEIIWLPCLTYAQILAFIAALNDDPCQSSEILSEAKELCS-NH2 (designed binder, disulfide (positions not given here)) [Compound C286], the Ki was found to be 23.9 nM.

In turn, CAREKIAALSEIIWLPCLTYAQIXAFIAALNDDPCQSSEILSEAKELCS (designed binder, (Kme2) at 24; N-terminal Biotin-PEG4; C-terminal NH2; two disulfide bridges) [Compound C275] displayed a Ki of 1.42 nM.
